Measured values as given in PMC2323369.

Assays:
Test in all cases: not stated; Table 1, GST-RBD, GDP-RhoA, GTP-Cdc42, GTP-Rac1; the caption names competition ELISA and SPR but not which gave these limits
GST-RhoA (wild type) = GST-RhoA (wild type) (UniProt P61586)
GST-Rac1 = GST-Rac1 (UniProt P63000)
GST-Cdc42 = GST-Cdc42 (UniProt P60953)

Measured: Kd

GST-Cdc42, sequence (P60953 whole entry): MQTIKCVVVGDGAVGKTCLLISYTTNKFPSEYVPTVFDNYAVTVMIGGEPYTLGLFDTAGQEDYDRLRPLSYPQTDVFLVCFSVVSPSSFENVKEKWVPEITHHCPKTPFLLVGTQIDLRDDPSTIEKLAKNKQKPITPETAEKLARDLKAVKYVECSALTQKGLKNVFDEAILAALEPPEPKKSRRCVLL
GST-RhoA (wild type), sequence (P61586 whole entry): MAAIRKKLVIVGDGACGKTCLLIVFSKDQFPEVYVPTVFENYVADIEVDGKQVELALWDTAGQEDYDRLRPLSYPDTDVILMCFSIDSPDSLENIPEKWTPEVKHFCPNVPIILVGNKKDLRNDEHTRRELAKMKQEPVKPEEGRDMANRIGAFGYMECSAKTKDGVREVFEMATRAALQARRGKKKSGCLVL

GST-RBD (Rho binding domain of Rhotekin fused to GST) (domain or fragment)
> 50 µM: all assays above
